In a protein production outcome set (Wang et al. 2014) one finds protein production data, which are given here for 21 sequences.

The series is described as follows: label from the status in PepcDB records.
For the sequence “MTKKLNPLEDPPTATSSDEDDVETSEAGEASDDSSSSEEDVPIKIRIKSPSATTAAAPPAKSTAVSTAADSDSGSETETDSDSESTNPPNSGSGKTIALNTVNLKKKEDPTSSSATLALPAMKSGTKRPASEAAATTSTKRVKKDEESVKKPGGFQRLWSEEDEILVLQGMIDFKADTGKSPYVDTNAFYDFLKKSISFEVSKNQFMDKIRSLRKKYIGKEGRNEPSFVKAHDKKAFELSKFIWGPKGIALDSNVKSNGVSKKSVAKKKIDSVKQELVFAGGSSTNGKKVEEDGGDDGCDWFDNSSLVRMIASLGVDEYYVKQQWSLVSVESKKIVEEKYKLLQAKELEFVLEKTKFLNEVASMFVEASKNKPLDT”, the protein production result is reported as “failed”.

As to “MTKLALFVRLEAKPGQEAALADFLASALPLANAESGTTAWFALKFGPSTFGVFDAFADEAGRQAHLNGQIAAALMANAATLLSSPPNIEKVELLAAKLPA”, the protein production result is listed as “not failed”.

Regarding “MTKNPRTLYEKIWDAHIVERREDGSALIYIDRHLVHEVTSPQAFEALRQAGRPLRRPDRTLAVPDHNVPTTARVDSEGHLLPIADPQSAKQLAALAKNAPEFGVRYISATDPEQGIVHVVGPEQGFTLPGTTLVCGDSHTAAHGALGALAFGIGTSEVEHVMATQTLILTPAKTMEVRVEGKLSPDVSAKDLILHIIHSLGTAGGTGYAIEYTGEAIRNLSIEERLTVSNMSIEAGARTGLIAADEKTFAYLFGRPMAPKGADWEKAVQWWKSLATDKGAVYDKTVIIKAEDVQPSVTWGTSPEDVVPITGVVPDPASFADPAKQAAARRSLEYMGLEPGQKMEGLAVENVFIGSCTNSRIEDLRAAASVVWGRHVADNVKQALVVPGSGLVKRQAEAEGLDEVFKAAGFEWREPGCSMCLAMNPDKVPAGERCASTSNRNFVGRQGPGARTHLVSPAMAAAAAVTGHLTDLRHLEPVKMGEKA”, the protein production entry is recorded as “failed”.

In the case of “MTKQKSKPVEYHPFPQLVLTLDVRRSFTPTFLRQILQTRSFACVILYDSQGVQDDAVFLQKQAQIYAEDIQSNGAAFLISGERRVSERIKADGLHIEGDLKALEYCDYQKKEQKIIGFGNIRNRHCAMVAGEAGVDYLLFGKLGADKKPHAHPRNLQLARWWAEIMETPAIVQAGSDFATFDEVIKTACEFIAIEEVIFAHDNPLMLLKMMQEKCKNSPL”, the protein production result was “failed”.

As for “MTKRVTCSACDGFGAEGGETGMVSCNSCEGNGFILKNQRSIFGTVQSQMLCQSCGGQGKQALEHHHHHH”, the protein production result is reported as “failed”.

For the sequence “MTKSELIEQLCSKKPQLSAKQVEDTVKEILEQMATTLEGGDRIEIRGFGSFSLHYREPRLGRNPKTGDKVELDGKFVPHFKPGKELRERVNYS”, the protein production entry is given as “failed”.

In the case of “MTKSVDTLLIPGPIILSGAVQKALDVPSLGHTSPEFVSIFQRVLKNTRAVFKSAAASKSQPFVLAGSGTLGWDIFASNFILSKAPNKNVLVVSTGTFSDRFADCLRSYGAQVDVVRPLKIGESVPLELITEKLSQNSYGAVTVTHVDTSTAVLSDLKAISQAIKQTSPETFFVVDAVCSIGCEEFEFDEWGVDFALTASQKAIGAPAGLSISLCSSRFMDYALNDSKNGHVHGYFSSLRRWTPIMENYEAGKGAYFATPPVQLINSLDVALKEILEEGLHKRWDLHREMSDWFKDSLVNGLQLTSVSRYPSNMSAHGLTAVYVADPPDVIAFLKSHGVVIAGGIHKDIGPKYIRIGHMGVTACNKNLPYMKNCFDLIKLALQRKK”, the protein production result is listed as “not failed”.

For “MTLFDGTPFEWAPGRIEVRARRECGASRKSLVVAAGVSYLARMIFSFDAFVTNALFDRSGRAMFALGDGTVRLQTDEGFVTVEAHGGPLGGAVLAAAVHPSGAGIVTGGDDGRVVWSRIEGGEVVATLIAEVKNKWIEHVAASAASGLIAFTVGKEVHVRDAADPAFARTFPHEKTVSGLAFEPKGRRLASATYGGAYLWYARIADQKPTVLKWAGSHIAVEFSPDGKFLISSMQENQLHGWRLSDGKDMRMGGYPSKIKSVAFFDKGNLLATAGASGAVIWPFAGANGPMGKEAAEIGFSRDSMVVRVAGIDPQPVCIAGQDSGKIWAAHMRNGRIETLKAEKGAPISALSVSADGKRLAWGDESGEAGVLEIPDLSGPRQFVGLEHHHHHH”, the protein production result is “failed”.

In the case of “MTLGTNQVSKTHSFMTVSLIELWERFGYYGMQALIVYFMVQRLGFDDSRANLVWSACAALIYVSPAIGGWVGDKILGTKRTMLLGAGILSVGYALMTVPTENTWFMFSALGVIVVGNGLFKPNAGNLVRKIYEGDDSKIDSAFTIYYMAVNVGSTFSMLLTPWIKDYVNAQYGNEFGWHAAFAVCCVGILVGLGNYALMHKSLANYGSEPDTRPVNKKSLAIVLALAALSVVASAIILEYEDVARVFVYAAGVAVLGIFFHLIRTSEPSERAGLIAALILTVQTVFFFIFYQQMSTSLALFALRNVDWDFQVFGTHLWTWSPAQFQALNPIWIMVLSPVLAWSYSWAGRNNKDFSIAAKFALGFAVVAIGFFIYGFAGQFAVNGKTSSWVMIWGYASYSLGELLVSGLGLAMIARYVPARMGGFMMGAYFVASGISQYLGGVVANFASVPQDLVDPLQTLPVYTNLFNKLGVAAVVCTIIALAVLPLMRRLTESHHAHSSIENNAAASLRDVKAEQ”, the protein production result is listed as “failed”.

Regarding “MTLIRWNPWQDLNTLQRQLNHLFEEDMLPSTLLERTLTRVPAAELHETAEVIYLKLELPGIDAKDVDLQVTDKAVYISGERKSETKTEDKGVFKSEFQYGKFQRVIPLPARIQNTNVTAEYKDGILNLTLPKAEVEKNKVVKINIESAAGLEHHHHHH”, the protein production entry is reported as “not failed”.

Consider “MTLKGTAERWGWMSQALHWLIAVLILGLGIGGLIMGKLPKTPNYFWVYTAHKSIGISVLALAVLRLFWRLYAGAPKPIAGTPVWQERVANATHIMLYVLIFTIPLAGWLYDSARGLRTFYWFGLFEMPALVSPNETIRGVALEIHKLSFWALIGLVVLHAGAAFHHHLIQRDATLARMLPRNWFSSKS”, for which the protein production entry is recorded as “failed”.

As for “MTLKPTQQRLLLMLGWLHLQCGQPRRAQVLLEALLSVAPERRDGRRALLLALLQQGLGEPAVRLCRQLQEDGEEEPGLWRCLSRAEQLAGRLDAARAAHARALELEARELEHHHHHH”, the protein production entry is “not failed”.

For “MTLLQQIMWGSLYLGLCFVVEVLLLVWCTLVIVHLSIRLRHLSRAMRTAAVISVSLAFIVLAHTLQVWLWAGVWIWSDVLTDWNEALYFSLVTYTTLGYGDIVLGPGLRIFAAFAAVAGLLAFGLSTAYLVALMSRVFEGRLPR”, the protein production entry is given as “failed”.

Turning to “MTLMVPFKQVDVFTEKPFMGNPVAVINFLEIDENEVSQEELQAIANWTNLSETTFLFKPSDKKYDYKLRIFTPRSELPFAGHPTIGSCKAFLEFTKNTTATSLVQECKIGAVPITINEGLISFKAPMADYESISSEMIADYEKAIGLKFIKPPALLHTGPEWIVALVEDAETCFNANPNFAMLAHQTKQNDHVGIILAGPKKEAAIKNSYEMRAFAPVINVYEDPVCGSGSVALARYLQEVYKFEKTTDITISEGGRLKRNGLMLASIKKEADNSTSYYIAGHATTVIDGKIKV”, the protein production entry is reported as “not failed”.

On to “MTLSITSNFDAGAIDVVSCERADAIRLRVRGDNRSEFAQWFYFRLTGARGERCVMTFENANDCAYPAGWRDYRAVASYDRVNWFRVPTSYDGQMLTIDHTPEFDSIHYAYFEPYSEERHSEFLGAVQQMPQASVVELGRTVEGRPMSLVVLGTPDEAGAAKKKVWIIARQHPGESMAEWFIEGLVKRLVGWGDWSGDPVARKLYDHATFYIVPNMNPDGSVHGNLRTNAAGANLNREWMEPDAERSPEVLVVRDAIHAIGCDLFFDIHGDEDLPYVFAAGSEMLPGFTEQQRVEQSAFIDSFKRASPDFQDEHGYPPGKYREDAFKLASKYIGHRFGCLSLTLEMPFKDNANLPDEHIGWNGARSASLGAAMLGAILEHVRAFA”, for which the protein production result was “not failed”.

In the case of “MTLSPNLRGALWMLASAVGFTVMTTLIKFLGDDYPAALQTFYRQLAGVLVLLPLIARDWRGAFRTTRPGIVIFRSSAGVLALIMSFYAYQKLPLADANALSFTRTLWLVPLAGLVLREPIGPRRISAALVGFVGVLIMLQPGAGGVEAWLGWPQLCALGAAFLFALTITGMKVMTRDHTPFVLLVYAAVLGLVFAIPPALFVWRWPTWPDLGLLAAMGVIGTLTQGAYIKGMEAGEAAVMAPVDYTRLVFAVIVGFLLFQEVPRTATVVGAVIVVGSTLFISWREHQLAKQAAAEPT”, the protein production result is reported as “failed”.

“MTLTEQPQRIAILHSLYLEYFLALGTPPIASAGASTGDAMKALGEWETLKPYAGTAKIIDLGSARDLNLEAILGANPDVIVTFKGQGNLDKIYEQLEQIAPVILVDFSAPWQEQILACAEIVNKEADAQKLIKEIEDSVQSAKEKLSRLEHHHHHH”: the protein production entry is “failed”.

Turning to “MTLTLNRQLLTSRQILVAFSGGLDSTVLLHQLVQWRTENPGVALRAIHVHHGLSANADAWVTHCENVCQQWQVPLVVERVQLAQEGLGIEAQARQARYQAFARTLLPGEVLVTAQHLDDQCETFLLALKRGSGPAGLSAMAEVSEFAGTRLIRPLLARTRGELVQWARQYDLRWIEDESNQDDSYDRNFLRLRVVPLLQQRWPHFAEATARSAALCAEQESLLDELLADDLAHCQSPQGTLQIVPMLAMSDARRAAIIRRWLAGQNAPMPSRDALVRIWQEVALAREDASPCLRLGAFEIRRYQSQLWWIKSVTGQSENIVPWQTWLQPLELPAGLGSVQLNAGGDIRPPRADEAVSVRFKAPGLLHIVGRNGGRKLKKIWQELGVPPWLRDTTPLLFYGETLIAAAGVFVTQEGVAEGENGVSFVWQKTLS”, the protein production entry is given as “not failed”.

In the case of “MTLTQLEIFALVAEMQGFTAAAARLGISQSGVSHAVRELERELGVELLQRRQGRVELTDIGRQLLPRASGMLGLAEAMRQEAADARGLRRGTLRIGSFGPTSSMRLLPALLARYRQQYPGIEVHIDEGPDEQVLQWLLERRVDIAFAVLPDPRFVCCPLVEDQMVAVLPAGHRLADRPRVTLAELCGEPFALSGAGSAELVMRLFQAARLQPNIRYRCGQLLSTLDTVARGDAVAIVAELSLPSRPHAEGYVGKPLQPAVRRQVGLALLDGDQASPAARAFLQIADRLRIEGGLAGLNARENGAA”, the protein production result was “not failed”.

As to “MTLVDDRLLESKMTKVEQARAWSPRVISKFETLIKSADDHSLYRVNPLAFARDRAIAEAEAIDLFLHAARCGLFDMSWDVLCPQSGMVLDSFGALRTLKTHYVCGLCDVSGDTDLDDFIEVTFSVSPKLRRLPYHDPETLPVEDFHWKLHFGHDGRLPGQDVRFLDVLRGFVRGMTFLPPGTTTVLRADLGPGALSGVNVQTQAAFAVPISGDRGLAPTLLKIDYDGKRFLPAMPAVPPGPIVIEVANRGPVRGSLLVINWPPELVALTTKPTLDFDPYVSGGALLARQTFRQLFRSERVDEKEGLGIRQITFLFTDLKGSTAMYERLGDLNAYALVREHFALVNAAVQQHSGAVVKTIGDAVMAVFSQPSDAISAALHVFEEIDRFNGDHDGPGIILKIGAHCGPSIAVTLNDNLDYFGQTVNVAARVQSLAEAGQICISEALYSAPGVREMLAGHRVVAFDAPLRGVQGDATVYRIMRE”, the protein production entry is “failed”.

Regarding “MTMETVESQHDGSITASLTESKSAHVQTQTGQNSIPALAQVAAIAETDESAESGGVIDSHKRREILSRRPSYRKILNELSSDVPGVPKIEEERSEEEGTPPSIATMAVPTSIYQTSTGQYIAIAQGGTIQISNPGSDGVQGLQALTMTNSGAPPPGATIVQYAAQSADGTQQFFVPGSQVVVQAATGDMPTYQIRAPTAALPQGVVMAASPGSLHSPQQLAEEATRKRELRLMKNREAAKECRRRKKE”, the protein production entry is listed as “not failed”.
